Source: patent publication US20240218346A1, “PHOSPHOKETOLASE VARIANTS AND METHODS OF USE” (Genomatica, Inc., priority 2021, published 2024)
Changes are numbered by the printed parent chain. Names and notes keep the numbering of the source.

T1: Bifidobacterium adolescentis fructose-6-phosphate phosphoketolase (H2), wild type, SEQ ID NO: 1 (Bifidobacterium adolescentis, UniProt A1A185)
T1 sequence (A1A185 with tags, fused parts or gaps): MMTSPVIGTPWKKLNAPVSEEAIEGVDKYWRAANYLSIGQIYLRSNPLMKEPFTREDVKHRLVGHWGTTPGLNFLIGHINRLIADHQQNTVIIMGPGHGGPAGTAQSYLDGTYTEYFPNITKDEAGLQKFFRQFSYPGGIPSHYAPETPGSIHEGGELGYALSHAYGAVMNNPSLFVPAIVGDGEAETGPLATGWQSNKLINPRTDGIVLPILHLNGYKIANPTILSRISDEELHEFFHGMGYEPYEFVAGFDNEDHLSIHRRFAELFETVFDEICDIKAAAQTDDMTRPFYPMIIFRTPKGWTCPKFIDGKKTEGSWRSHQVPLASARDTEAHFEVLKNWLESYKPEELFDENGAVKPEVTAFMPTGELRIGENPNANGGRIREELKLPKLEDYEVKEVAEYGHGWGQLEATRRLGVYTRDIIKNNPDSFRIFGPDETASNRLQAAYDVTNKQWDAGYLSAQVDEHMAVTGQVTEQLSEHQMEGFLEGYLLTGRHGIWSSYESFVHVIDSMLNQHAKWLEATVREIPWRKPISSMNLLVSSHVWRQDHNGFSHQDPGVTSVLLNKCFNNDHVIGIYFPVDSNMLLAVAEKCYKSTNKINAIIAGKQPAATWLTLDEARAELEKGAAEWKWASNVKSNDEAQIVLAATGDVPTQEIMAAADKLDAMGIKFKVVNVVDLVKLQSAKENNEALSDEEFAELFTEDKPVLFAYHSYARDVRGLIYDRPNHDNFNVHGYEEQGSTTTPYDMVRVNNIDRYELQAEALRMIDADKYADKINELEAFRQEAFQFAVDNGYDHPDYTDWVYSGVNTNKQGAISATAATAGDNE

B1: Bifidobacterium adolescentis fructose-6-phosphate phosphoketolase (H2, SEQ ID NO: 1) variant H239R (Bifidobacterium adolescentis ATCC 15703; H238R) (protein)
chain: T1 sequence (A1A185 with tags, fused parts or gaps) with H239R
B2: Bifidobacterium adolescentis fructose-6-phosphate phosphoketolase (H2, SEQ ID NO: 1) variant M483C (Bifidobacterium adolescentis ATCC 15703; M482C) (protein)
chain: T1 sequence (A1A185 with tags, fused parts or gaps) with M483C
B3: Bifidobacterium adolescentis fructose-6-phosphate phosphoketolase (H2, SEQ ID NO: 1) variant Y804W (Bifidobacterium adolescentis ATCC 15703; Y803W) (protein)
chain: T1 sequence (A1A185 with tags, fused parts or gaps) with Y804W
B4: Bifidobacterium adolescentis fructose-6-phosphate phosphoketolase (H2, SEQ ID NO: 1) variant H257P (Bifidobacterium adolescentis ATCC 15703; H256P) (protein)
chain: T1 sequence (A1A185 with tags, fused parts or gaps) with H257P
B5: Bifidobacterium adolescentis fructose-6-phosphate phosphoketolase (H2, SEQ ID NO: 1) variant Q759L (Bifidobacterium adolescentis ATCC 15703; Q758L) (protein)
chain: T1 sequence (A1A185 with tags, fused parts or gaps) with Q759L
B6: Bifidobacterium adolescentis fructose-6-phosphate phosphoketolase (H2, SEQ ID NO: 1) variant C567S (Bifidobacterium adolescentis ATCC 15703; C566S) (protein)
chain: T1 sequence (A1A185 with tags, fused parts or gaps) with C567S
B7: Bifidobacterium adolescentis fructose-6-phosphate phosphoketolase (H2, SEQ ID NO: 1) variant S504A (Bifidobacterium adolescentis ATCC 15703; S503A) (protein)
chain: T1 sequence (A1A185 with tags, fused parts or gaps) with S504A
B8: Bifidobacterium adolescentis fructose-6-phosphate phosphoketolase (H2, SEQ ID NO: 1) variant Y799I (Bifidobacterium adolescentis ATCC 15703; Y798I) (protein)
chain: T1 sequence (A1A185 with tags, fused parts or gaps) with Y799I

Columns and labels:
[1] = tested on: Collinsella aerofaciens xylulose-5-phosphate/fructose-6-phosphate phosphoketolase (D3), wild type, SEQ ID NO: 2; assay: Kinetics, Hydroxymate based colorimetric assay for FPK activity (F6P); format: biochemical
Description: Mutagenesis techniques were used to generate engineered phosphoketolases based on one of two template phosphoketolases (the fructose-6-phosphate phosphoketolase from Bifidobacterium adolescentis (strain ATCC 15703 DSM 20083 NCTC 11814 E194a) (“H2”; UniProtKB Accession No. A1A185_BIFAA; SEQ ID NOs: 1 and 3) orthe xylulose-5-phosphate/fructose-6-phosphate phosphoketolase from Collinsella aerofaciens (“D3”; UniProt KB Accession No. A0A174LGR4_9ACTN; SEQ ID NOs: 2 and 4)). Engineered phosphoketolase were generated using rational protein engineering. Structural homology models were constructed for H2 and D3. The substrate docking with Xu5P and F6P were also performed. In total, 2000 variants were designed. […]
(§1) Further biochemical characterization of selected variants was conducted and the FPK activity of these variants were assessed. […] The kinetics parameters measured during biochemical characterization are summarized below in Table 5. […]
The product of FPK is coupled to ferric-hydroxamate complex production via hydroxamate reactions of its product with hydroxylamine and ferric chloride. Ferric-hydroxamate complex production was measured by absorbance at 520 nm. […]
Cell lysate preparation was the same described as above. […] The reaction was incubated at room temperature for 10 minutes and then sent to the plate reader for absorption at 520 nm.

[2] = tested on: Collinsella aerofaciens xylulose-5-phosphate/fructose-6-phosphate phosphoketolase (D3), wild type, SEQ ID NO: 2; assay: Kinetics, E4PDH based colorimetric assay for FPK activity (F6P); format: biochemical
Description: Mutagenesis techniques were used to generate engineered phosphoketolases based on one of two template phosphoketolases (the fructose-6-phosphate phosphoketolase from Bifidobacterium adolescentis (strain ATCC 15703 DSM 20083 NCTC 11814 E194a) (“H2”; UniProtKB Accession No. A1A185_BIFAA; SEQ ID NOs: 1 and 3) orthe xylulose-5-phosphate/fructose-6-phosphate phosphoketolase from Collinsella aerofaciens (“D3”; UniProt KB Accession No. A0A174LGR4_9ACTN; SEQ ID NOs: 2 and 4)). Engineered phosphoketolase were generated using rational protein engineering. Structural homology models were constructed for H2 and D3. The substrate docking with Xu5P and F6P were also performed. In total, 2000 variants were designed. There are 1031 constructs designed based on H2, and 969 based on D3. 1999 constructs were received from DNA synthesis. […]
as §1
The product of FPK is coupled to NADH production via a one-step enzymatic reaction of its product with E4PDH. NADH production overtime was measured by absorbance at 340 nm. […]
5 μL of half diluted cell lysate was added into 45 μL of reaction buffer. […] The reaction was recorded for a 10-min kinetics reading at 340 nm at room temperature.

[3] = biological target: T1, Bifidobacterium adolescentis fructose-6-phosphate phosphoketolase (H2), wild type, SEQ ID NO: 1; assay: Kinetics, Hydroxymate based colorimetric assay for FPK activity (F6P); format: biochemical
Description: Further biochemical characterization of selected variants was conducted and the FPK activity of these variants were assessed. […] The FPK kinetics assay was based on the E4PDH based Colorimetric Assay described herein for the 12 hits and the two controls (SEQ ID NO: 1 and SEQ ID NO: 2).
The product of FPK is coupled to ferric-hydroxamate complex production via hydroxamate reactions of its product with hydroxylamine and ferric chloride. Ferric-hydroxamate complex production was measured by absorbance at 520 nm. This is an end-point assay.
Cell lysate preparation was the same described as above. One typical reaction contained 7.5 uL lysate and 67.5 μL reaction buffer. Reaction buffer contained 1 mM of NADH and 5 mM of F6P substrate for primary screening. 2 mM of F6P was used in secondary screening in reaction buffer 1. The reaction in a plate was incubated at room temperature for 30 minutes. After the 30-min incubation, 25 μL of 2 M hydroxylamine in Tris-HCl solution was added into one reaction to initiate the hydroxamate reaction. The reaction was incubated at room temperature for 10 minutes and then sent to the plate reader for absorption at 520 nm.

[4] = biological target: T1, Bifidobacterium adolescentis fructose-6-phosphate phosphoketolase (H2), wild type, SEQ ID NO: 1; assay: Kinetics, E4PDH based colorimetric assay for FPK activity (F6P); format: biochemical
[5] = substrate: O=P(O)(O)OC[C@H]1OC(O)(CO)[C@@H](O)[C@@H]1O; assay: as above; format: biochemical, Bifidobacterium adolescentis; conditions: other: F6P
Description: Mutagenesis techniques were used to generate engineered phosphoketolases based on one of two template phosphoketolases (the fructose-6-phosphate phosphoketolase from Bifidobacterium adolescentis (strain ATCC 15703 DSM 20083 NCTC 11814 E194a) (“H2”; UniProtKB Accession No. A1A185_BIFAA; SEQ ID NOs: 1 and 3) orthe xylulose-5-phosphate/fructose-6-phosphate phosphoketolase from Collinsella aerofaciens (“D3”; UniProt KB Accession No. A0A174LGR4_9ACTN; SEQ ID NOs: 2 and 4)). Engineered phosphoketolase were generated using rational protein engineering. Structural homology models were constructed for H2 and D3. The substrate docking with Xu5P and F6P were also performed. In total, 2000 variants were designed. There are 1031 constructs designed based on H2, and 969 based on D3. 1999 constructs were received from DNA synthesis. The variants were then tested for XPK and/or FPK activity in in vitro primary and secondary screens as described below.
Further biochemical characterization of selected variants was conducted and the FPK activity of these variants were assessed. 12 hits were selected from the secondary screening results of the phosphoketolase library screen for in vitro biochemical characterization. All 12 of the hits selected are variants based on SEQ ID NO: 1. The kinetics parameters measured during biochemical characterization are summarized below in Table 5. The FPK kinetics assay was based on the E4PDH based Colorimetric Assay described herein for the 12 hits and the two controls (SEQ ID NO: 1 and SEQ ID NO: 2).
The product of FPK is coupled to NADH production via a one-step enzymatic reaction of its product with E4PDH. NADH production overtime was measured by absorbance at 340 nm. The reactions are listed below.
5 μL of half diluted cell lysate was added into 45 μL of reaction buffer. The reaction buffer contained an approximate amount of E4PDH enzyme, 1 mM NADH and 5 mM F6P as substrate for primary screening. 2 mM F6P was used for secondary screening. The reaction was recorded for a 10-min kinetics reading at 340 nm at room temperature.

| Molecule | Km [5] | kcat [5] | kcat/Km [5] | also measured |
| --- | --- | --- | --- | --- |
| O=P(O)(O)OC[C@H]1OC(O)(CO)[C@@H](O)[C@@H]1O (stereo partly drawn) [F6P, D-fructose-6-phosphate] |  |  |  | Km [1]: 9.31 mM; kcat [1]: 19.57 s⁻¹; Km [2]: 27.9 mM; kcat [2]: 7.824 s⁻¹; Km [3]: 1.04 mM; kcat [3]: 5.933 s⁻¹; Km [4]: 4.89 mM; kcat [4]: 30.07 s⁻¹ |
| B1 | 2.432 mM | 57.9 s⁻¹ | 23800 M⁻¹ s⁻¹ |  |
| B2 | 2.299 mM | 34 s⁻¹ | 14800 M⁻¹ s⁻¹ |  |
| B3 | 2.86 mM | 30.8 s⁻¹ | 10800 M⁻¹ s⁻¹ |  |
| B4 | 2.422 mM | 25 s⁻¹ | 10300 M⁻¹ s⁻¹ |  |
| B5 | 3.596 mM | 35.6 s⁻¹ | 9890 M⁻¹ s⁻¹ |  |
| B6 | 3.046 mM | 26.4 s⁻¹ | 8660 M⁻¹ s⁻¹ |  |
| B7 | 3.347 mM | 26.3 s⁻¹ | 7850 M⁻¹ s⁻¹ |  |
| B8 | 4.53 mM | 33.6 s⁻¹ | 7430 M⁻¹ s⁻¹ |  |
